Data reported in patent publication US12404345B2, “Humanized antibodies against iRHOM2” (SCIRHOM GMBH, priority 2021, dated 2025).

Biological target: T1, human iRhom2 (Homo sapiens, UniProt Q6PJF5)
T1 construct: MEF-DKO-hiR2-FL-WT-T7 cells stably expressing human iRhom2 full length wild type; expressed in transfected cells; host or cells: immortalized iRhom1/2-/- double knockout mouse embryonic fibroblasts, pMSCV retroviral infection
T1 sequence (Q6PJF5 1-856): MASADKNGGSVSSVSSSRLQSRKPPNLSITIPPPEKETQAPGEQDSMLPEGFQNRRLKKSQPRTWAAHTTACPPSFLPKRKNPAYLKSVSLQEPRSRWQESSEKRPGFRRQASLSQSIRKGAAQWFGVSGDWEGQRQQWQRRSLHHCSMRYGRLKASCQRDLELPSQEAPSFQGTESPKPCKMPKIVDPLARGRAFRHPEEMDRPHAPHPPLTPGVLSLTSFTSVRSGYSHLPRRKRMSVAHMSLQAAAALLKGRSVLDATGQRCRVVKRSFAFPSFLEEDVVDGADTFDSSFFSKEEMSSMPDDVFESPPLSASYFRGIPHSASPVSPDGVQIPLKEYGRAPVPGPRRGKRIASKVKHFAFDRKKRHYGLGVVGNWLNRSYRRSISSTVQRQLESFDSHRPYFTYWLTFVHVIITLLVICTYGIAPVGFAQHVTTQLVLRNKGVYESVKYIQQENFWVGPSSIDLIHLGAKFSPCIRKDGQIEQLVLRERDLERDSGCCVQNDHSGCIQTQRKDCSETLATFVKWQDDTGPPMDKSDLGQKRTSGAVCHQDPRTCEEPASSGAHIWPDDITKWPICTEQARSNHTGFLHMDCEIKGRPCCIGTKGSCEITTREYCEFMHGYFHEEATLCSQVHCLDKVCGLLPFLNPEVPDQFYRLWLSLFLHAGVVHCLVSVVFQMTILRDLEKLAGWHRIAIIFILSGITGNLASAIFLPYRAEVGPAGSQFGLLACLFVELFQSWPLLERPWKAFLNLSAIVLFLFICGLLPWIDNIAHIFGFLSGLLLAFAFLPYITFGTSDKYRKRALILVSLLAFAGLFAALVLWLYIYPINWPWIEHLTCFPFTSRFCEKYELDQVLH
Experiment: FACS binding to MEF-DKO-hiR2-FL-WT-T7 cells
Conditions: antibody at 3 μg/ml
Excerpt: Next, immortalized iRhom1/2−/− DKO MEFs were reconstituted with a tagged form of human iRhom2 to test target recognition of humanized antibodies of the invention. Additionally, iRhom1/2−/− DKO MEFs stably expressing a tagged form of mouse iRhom2 were generated in order to determine cross-reactivity of the humanized antibodies 16-B-03, 16-B-05, 16-B-07, 23-B-04, 42-B-02 and 42-B-04 of the invention with the mouse orthologue of iRhom2.
In brief, on day 1, Phoenix-ECO cells (American Type Culture Collection, USA) were seeded on 6-well tissue culture plates (Greiner, Germany) in standard growth medium at 8×10^5 cells per well and kept overnight at 37° C., 5% CO2. On day 2, the medium was replaced by fresh medium supplemented with chloroquine (Sigma-Aldrich, USA) at a final concentration of 25 μM. Applying the calcium phosphate method, cells were transfected with 2 μg/ml of pMSCV (Clontech, USA) empty vector, pMSCV-hiR2-FL-WT-T7 encoding human iRhom2 full length wild type C-terminally tagged with 3 consecutive copies of the T7 epitope (MASMTGGQQMG) or pMSCV-miR2-FL-WT-T7 encoding mouse iRhom2 full length wild type C-terminally tagged with 3 consecutive copies of the T7 epitope, and were kept at 37° C., 5% CO2. […]

- binding to the human iRhom2 variant on MEF-DKO-hiR2-FL-WT-T7 cells: strong binding
B1: 16-B-03: humanized antibody binding human iRhom2; HCVD SEQ ID NO 1, LCVD SEQ ID NO 5 (antibody, V domains shown)
VH: QVTLRESGPALVKPTQTLTLTCTFSGFSLSTFALGVGWIRQPPGKALEWLAHIWWDDDKYYNPALKSRLTISKDTSKNQVVLTITNMDPVDTATYYCARITTYYYGMDYWGQGTLVTVSS
VL: EIVMTQSPDFQSVTPKEKVTITCRASQSIGNHLHWYQQKPDASPKLLIKYASQSISGVPSRFSGSGSGTDFTLTINSLEAEDAATYFCQQSYQWPLTFGQGTKLEIK
modifications: antibody sequences
